Results reported in patent US20090304580A1.

Target: PAM4 antigen (human pancreatic cancer mucin, CaPan1) (human)
Assay: ELISA on target mucin antigen (FIG. 9)

EC50: 30.6 nM
B1: monovalent bsPAM4 chemical conjugate (PAM4-Fab′ x anti-DTPA-Fab′) (bispecific antibody, part only; not given: Anti-DTPA Fab′ and constant parts, V domains shown, part only)
VH: QVQLQESGPELVKPGASVKMSCKASGYTFPSYVLHWVKQKPGQGLEWIGYINPYNDGTQYNEKFKGKATLTSDKSSSTAYMELSRLTSEDSAVYYCARGFGGSYGFAYWGQGTLITVSS
VL: DIQLTQSPAIMSASPGEKVTMTCSASSSVSSSYLYWYQQKPGSSPKLWIYSTSNLASGVPARFSGSGSGTSYSLTISSMEAEDAASYFCHQWNRYPYTFGGGTKLEIKR
